Assay results taken from patent US20050164308A1, “Beta-lactamase CD4+ T-cell epitopes” (priority 2003, published 2005).
Where a chain is given by its changes, count along the chain named. Names may count otherwise.

How the values were obtained:
[1] = tested on: BLA-specific IgG1 antibody; assay: Antigen-specific ELISA on serum of thrice-immunized mice; format: in vivo, CB6F1 mice; conditions: BLA or CD1.1 as plate coating
Protocol: (§1) In this Example, experiments conducted to test the reduced immunogenicity of pCD1.1 in vivo are described. In these experiments, CB6F1 mice were immunized intraperitoneally with 20 μg of either wild-type BLA, or the CD1.1 protein in alum per mouse, as known in the art. Mice were immunized on days 1, 7, and 15 (i.e., d=1, d=7 and d=15). Splenocytes were tested for reactivity with BLA peptides on day 19. […] This response correlates with one of the human defined epitopes.
In addition, serum samples were taken from the thrice-immunized mice and an antigen-specific ELISA was performed (FIG. 16). Mice immunized with BLA produced robust levels of anti-BLA IgG1 antibody. […] ELISA assays were performed using both BLA and CD1.1 as the plate-coating reagent, with identical results.

PBMCs = assay: PBMC proliferation assay; format: cell-based, human; conditions: 26 donors
Protocol: The blood samples used in these experiments were the same as described above (i.e., before Example 1). The PBMCs were separated using Lymphoprep, as known in the art. The PBMCs were washed in PBS and counted using a Cell Dyn® 3700 blood analyzer (Abbott). The cell numbers and differentials were recorded. The PBMCs were resuspended to 4×10^6 cells/ml, in a solution of heat-inactivated human AB serum, RPMI 1640, pen/strep, glutamine, and 2-ME. Then, 2 mls per well were plated into 24-well plates. Two wells were used as no-enzyme controls. Then, the unmodified beta-lactamase and modified beta-lactamases were added to the wells at a concentrations of 10 ug/ml, 20 ug/ml, and 40 ug/ml. The epitope-modified beta-lactamases tested were K21A/S324A (designated as “pCD1.1”) and K21A/S324A/L149S (designated as “pCD08.3”). The K21A mutation corresponds to SEQ ID NO:10, while the S324A mutation corresponds to SEQ ID NO:48, and the L149S mutation corresponds to SEQ ID NO:84. The S324 variant is in epitope #107, while K21A is in epitope #6, and L149S is in epitope #49. […] These plates were incubated for 6 hours, the cells harvested and counted. […] SI values were calculated by dividing the average for each set of eight wells for each sample by the average CPM for the control well. The data were analyzed by creating a dataset representing the highest SI value achieved for each donor and each enzyme. […]

mouse splenocytes [2] = assay: Proliferative response of splenocytes from immunized mice to BLA peptides; format: in vivo, CB6F1 mice; conditions: mice immunized i.p. 20 μg in alum, days 1, 7, 15; tested day 19
Protocol: as §1

mouse splenocytes [3] = assay: Proliferative response of splenocytes from immunized mice to whole protein BLA or CD1.1; format: in vivo, CB6F1 mice; conditions: mice immunized with the labelled protein; restimulated with BLA or CD1.1
Protocol: as §1
Splenocytes from immunized mice were tested in vitro for their proliferative response to whole protein BLA or CD1.1. […] However, it is not intended that the present invention be limited to any particular mechanism.

B1: pCD1.1: epitope-modified beta-lactamase K21A/S324A (protein)
chain: TPVSEKQLAEVVANTITPLMAAQSVPGMAVAVIYQGKPHYYTFGKADIAANKPVTPQTLFELGSISKTFTGVLGGDAIARGEISLDDAVTRYWPQLTGKQWQGIRMLDLATYTAGGLPLQVPDEVTDNASLLRFYQNWQPQWKPGTTRLYANASIGLFGALAVKPSGMPYEQAMTTRVLKPLKLDHTWINVPKAEEAHYAWGYRDGKAVRVSPGMLDAQAYGVKTNVQDMANWVMANMAPENVADASLKQGIALAQSRYWRIGSMYQGLGWEMLNWPVEANTVVEGSDSKVALAPLPVAEVNPPAPPVKASWVHKTGSTGGFGAYVAFIPEKQIGIVMLANTSYPNPARVEAAYHILEALQ
anti-BLA IgG1 antibody level [1]: did not produce significant levels | average proliferative response (SI) compared to wild-type beta-lactamase (PBMCs; 10, 20, 40 ug/ml, highest SI per donor): less proliferation | percent of responders compared to wild-type beta-lactamase (PBMCs; responder if highest SI > 1.99): fewer donors | splenocyte proliferative response to the peptide 107 region (mouse splenocytes [2]): no longer responded | splenocyte proliferative response to the peptide 114 region (mouse splenocytes [2]): no longer responded | in vitro proliferative response of immunized mouse splenocytes to whole protein (mouse splenocytes [3]): unable to respond significantly

B2: BLA: beta-lactamase precursor (cephalosporinase) from Enterobacter cloacae, GenBank Accession No. P05364, SEQ ID NO:1 (protein, listed as Enterobacter cloacae)
chain: B1 chain with A21K, A324S
anti-BLA IgG1 antibody level [1]: robust levels | splenocyte proliferative response to the peptide 107 region (mouse splenocytes [2]): respond strongly | splenocyte proliferative response to the peptide 114 region (mouse splenocytes [2]): Responses were also noted | in vitro proliferative response of immunized mouse splenocytes to whole protein (mouse splenocytes [3]): increased
